Data on 55 sequences can be found in the supplement of paper PMC12636428.

This data set deals with Saccharomyces cerevisiae. The data set can be described thus: transcriptional activation domain activity (GFP:mCherry ratio, weighted mean of sorted bins, harmonized to initial dataset scale) (arbitrary fluorescence ratio units); higher = stronger transcriptional activation. As to conditions: beta-estradiol 1 µM; induction time 4 h. Put shortly:
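Protein tiles carrying barcodes and fused to an estradiol-inducible synthetic transcription factor were placed at the URA3 locus of yeast diploids with a GFP reporter. Following 4 hours at 30 °C in SC with 1 uM beta-estradiol, cells were sorted into 8 GFP:mCherry bins, barcodes were sequenced, and tiles with fewer than 50 reads were discarded. Activation activity is given as the read-weighted mean of bin median fluorescence, averaged across barcodes and linearly mapped to the initial dataset scale.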

As for “EKGNKRNDEEKGRGGEGRSTGRERREAKNGSAEGEGRERKQRRDGGEAGEGGT”, the “transcriptional activation domain activity” value is 45400.

For the sequence “EKKAPGRRGRPPKAAAAKKAKEAAAPGEEGAKPKRPVGRPRKGTTETAEKKGA”, the “transcriptional activation domain activity” value came out at 22300.

“EKKEGAEKEGGEKKEAGGEGEKKVGGEGEKKEGGEGEMKESGVEGGKKEASES”: the “transcriptional activation domain activity” value was 26600.

For the sequence “EKKEKSSRKSTSRAAANGTAEKASKGEASSKKSRGASRPRSPKKTRSPAGRPA”, the “transcriptional activation domain activity” value came to 24500.

Turning to “EKKERAAEPIAEITTEAAAEPKAAAEEATPKKDKKEKKSKKEKKTEESAVTSE”, the “transcriptional activation domain activity” value was determined as 34600.

On to “EKKGKEGKRMRREKREIKEPEEKWEEKKKKPEEPEDVGARPRKPRREESKSRA”, for which the “transcriptional activation domain activity” value was found to be 37600.

Take “EKKRKRTEEEDAPKLKKKKTKSDLKRDSGGSSQEDSEAPAKKKKSSKSKKAKK”: the “transcriptional activation domain activity” value was 35800.

For “EKKRLLREKNKKRKRGEEVSDDEEEQKEEAAKKAKSEKEDSKHGIWVGNLHFS”, the “transcriptional activation domain activity” value came out at 50100.

Consider “EKKVKAPKSPKKEKKKEEAEAAAPATEEPAKDEEPAAAEAPAAEEAPKEEAAA”, for which the “transcriptional activation domain activity” value worked out at 41200.

Take “EKKVKTPKSPKKEKKKEEPAAAPAAAAEEPAKEEAAAPAEAAVAPTEEPAKVE”: the “transcriptional activation domain activity” value worked out at 42200.

Consider “EKLVEEVQETPKDKKKRKRDVEAEDVEASAKSEKKLKKKKSKSSAEEAAPADA”, for which the “transcriptional activation domain activity” value was determined as 30900.

Turning to “EKLVMNILEAVRLFHSIFDGLIAKALDEFAHLSRQARTMLSFFVIHIHLGVLH”, the “transcriptional activation domain activity” value turned out to be 71300.

Regarding “EKNEKPAPVAPAEGAVAEAKEGKSQKKEKKEKKPAEEGSSSKKGGKSAPAAAE”, the “transcriptional activation domain activity” value was found to be 33700.

As for “EKNKAEKKVKTPKSPKKEKKKEEPAAAAVEEPAKEEAAPAEAPAAPVEEPAKV”, the “transcriptional activation domain activity” value is 22800.

For the sequence “EKPAEAAPAEAIPAEPEAVEEEKPKSPAPTPAAAPAKGTTPSPEKENVAPAKA”, the “transcriptional activation domain activity” value worked out at 24800.

With “EKPKPEESPKGRGKSSGEPAPIPPSNGAADSKPSSAGAGNGSGSGSGDGGRKG”, the “transcriptional activation domain activity” value is 39800.

Consider “EKQKKKRKRGKRRRRRRNEKEEKEGEEEEEEKQEAKEEAKEEAKEEAKKKEKK”, for which the “transcriptional activation domain activity” value came out at 24600.

Turning to “EKRGAAKRADRSRSRSRGRSRGAKDVARRRRRNSSADSHEAREHRRQGKRGRS”, the “transcriptional activation domain activity” value worked out at 44700.

“EKRGLDTKNIYVGAEPFDAELRQRLESEQSFSFRSTDIIHFVAMLLIRYLFDL”: the “transcriptional activation domain activity” value is 59300.

Turning to “EKRHEKKKGSRDISGADDRSSGRSKDRRDHSSRGSSRKRHGSRRDKDRDLEDG”, the “transcriptional activation domain activity” value is 25700.

Consider “EKRYGPMLDPKNPLHYMWQLVYNILSLKLHIMLLFRYASNMHRIMPERLRQTV”, for which the “transcriptional activation domain activity” value came out at 58300.

As for “EKSEGANGEAGGEGSRRRASGRGRLRGRGRNGRGGRGGRAGETTDDKKEGEAT”, the “transcriptional activation domain activity” value is 26100.

As for “EKSQNNSNVINETIDHTDIHAHHADAHDDSFIESEEWLSKFIMDSQIDNDLKL”, the “transcriptional activation domain activity” value worked out at 139000.

In the case of “EKTEKKAKAPKSPKKEKKKEASETAAAPATEEPAKEAAKEEAAPATEAPAATE”, the “transcriptional activation domain activity” value is 31300.

“EKTKRKKKSATGATKRAGSGEAKPKRQRKKKGRRGESGDEEESGDEEGAERRA”: the “transcriptional activation domain activity” value is under 6570.

For the sequence “EKTRRNREKREKKKNKGKGGKGGGGGGNGGGGGGSGNAATVTAAAENGAGKKE”, the “transcriptional activation domain activity” value came out at 30900.

As to “EKTVEQPEELKETGGKEPRIERKLPLQYDHHQRKTRDNQMFQLAVVIYFLGKL”, the “transcriptional activation domain activity” value came out at 40300.

Regarding “EKVGTLWRARDVNERRQAKASGAAGGAAKATKPAGAAAASGAKPKATGAAGAA”, the “transcriptional activation domain activity” value turned out to be 21900.

“EKVKEEEEVKYKGKEQEEVKDKGKEQEQEQEQEQEQEQEQEAPAPPRTTTSTA”: the “transcriptional activation domain activity” value came to 40900.

On to “ELENQSSLYYLPIHEETPFFIDLIPNGFYLETKRSADNLFGLFTDRAIENRDP”, for which the “transcriptional activation domain activity” value turned out to be 83800.

As to “ELGAIEESKLCIVLLGTFRLLSFDCRTFAKYVRPLSLERLFNHTSRIVRLLAI”, the “transcriptional activation domain activity” value came out at 44000.

Take “ELGFVEIVQVSPRFGILLLCMTLSMISIIVDLLSVTPVIPIGVINPFWKFAFV”: the “transcriptional activation domain activity” value came to 39800.

Consider “ELGLGSWWVFIVLGHTSVLLELAPRYSFALYFLPVFLLTVTVVSFFFAFVLYL”, for which the “transcriptional activation domain activity” value came out at 41100.

With “ELGLLADIMQHEIQGFWGLIKILAKRRKNKYHANMADVNMRSVFQKAFTSWMM”, the “transcriptional activation domain activity” value was found to be 44500.

For “ELGSFRLLSFRVWCLLGTGSFWGLLYTAIAKMDGYTFGFLLQAHHVLKLLLVS”, the “transcriptional activation domain activity” value is 54400.

For “ELILVQDLCGTFCCSMQFLVLMDLLGNVVLPSSVIFFYYLIFAYFFGYPVAMP”, the “transcriptional activation domain activity” value is 60100.

Turning to “ELKDGGGGESSPIEIADRVVVEECDMEKVALDRTLGRLWRGWRKRLRSPATPV”, the “transcriptional activation domain activity” value came to 65100.

As to “ELKEGDPKVCAGKAVNEKGEVVDKDGNVIGKVDVVPGEAAFEAMKALKERLGE”, the “transcriptional activation domain activity” value was under 6570.

Consider “ELKKFADGVDRERKERAKSANGCCGFCGREEEALPKCGRCKETRYCSPSVRAC”, for which the “transcriptional activation domain activity” value was 33000.

On to “ELLCIDRETGETRFVEPKVPDGISLRNFGIQVVSSCVLLLLVSLRPPHVLCAC”, for which the “transcriptional activation domain activity” value stood at 53600.

Take “ELLDELLARNKSLVILVLDQIFMFILAWNRDYDRYDIQKIIGLYYIQSNVSLF”: the “transcriptional activation domain activity” value stood at 52100.

As for “ELLESTEREGGRGLRPAKAEVREGGLDGVVGGLEDLRGGRVSGRKLVYRVGTE”, the “transcriptional activation domain activity” value amounted to 35700.

Take “ELLLLWYIYFLGIQYAQDFCQYKKMLILTEDTMWGWDLYSFYNSIVFHGTGVP”: the “transcriptional activation domain activity” value was determined as 75000.

Take “ELLNAIVLVHMKLETGDLPPIVSRHIGRFAEQVLSKTPIHLIVTTSFRTLHKI”: the “transcriptional activation domain activity” value was found to be 73400.

In the case of “ELLRVLNKAHIYLMCLYLFSGLDAHMGILRDFKLIDSHYRLSLHTLICVLVSW”, the “transcriptional activation domain activity” value came out at 71000.

For “ELLSVLIPPSPAETRGPTTLSTSPSFNEHGVVAEASFLSSILELGIKHPKSNN”, the “transcriptional activation domain activity” value came out at 27900.

Consider “ELLVLLDQHWNYSRLRYPICFLSRTASEMLTFVRSMMEWLGGTVSKEDVGEDG”, for which the “transcriptional activation domain activity” value was determined as 25800.

Consider “ELLYKSYLCHLFSFFFPFPFYNIFNIIVHLFFFFLSFLSFFYYFNIYSCLYIY”, for which the “transcriptional activation domain activity” value turned out to be 69800.

For the sequence “ELNEYLDLFKNNFLPHFPIIHPSLLDLDLDSLQRYTNEDGYDDAENAQLFDRL”, the “transcriptional activation domain activity” value came out at 117000.

Take “ELPKKCDDKYWEHGDNYQEAIRQLPTKPSLVEFFNCLITLNRILALTLRMLYS”: the “transcriptional activation domain activity” value was 55200.

With “ELQKLLKFKVDDKKYPRFSPMFYPNNVKKDKLLFRVRLLVNILRVVLLGPSSL”, the “transcriptional activation domain activity” value came out at 36100.

For the sequence “ELRNHMSAIIDICWGACGTYKGVELWLEWDRNDNVPFHDSLWRVVRFVIFVNH”, the “transcriptional activation domain activity” value came out at 63200.

As for “ELSHPSALFCYILFRLFPIFMYLFGHLVLMLVTQESWFILYFIVLILLVAADF”, the “transcriptional activation domain activity” value was determined as 60500.

Consider “ELVVLRFWSLKAIVFFFVLVLQTVSLGAGKGGGLYKDLFTLFLHILCILELCC”, for which the “transcriptional activation domain activity” value was 61300.

For “ELWHSLYMLFKTYWCRLLHYALSLVLLCSFIVRLVSVIAILDSKRCGLTLFAA”, the “transcriptional activation domain activity” value was determined as 73200.
